This note sets out measurements from patent US20030088884A1.

For assay [1], the target named is human LGR8, recombinant, expressed in 293T cells (human) (UniProt Q8WXD0). The assay is described as follows: competition with 5 nM biotinylated ovine INSL3 for 293T cells expressing LGR8, 4 C 24 h, 125I-streptavidin detection.
Assay [2] deals with human LGR7, long form (LGR7(1), 757 amino acids), recombinant, expressed in 293T cells (human), Q9HBX9. The assay is described as follows: cell-based or functional assay.
human LGR7, long form (LGR7(1), 757 amino acids), recombinant, expressed in 293T cells (human), Q9HBX9, sequence (Q9HBX9 whole entry): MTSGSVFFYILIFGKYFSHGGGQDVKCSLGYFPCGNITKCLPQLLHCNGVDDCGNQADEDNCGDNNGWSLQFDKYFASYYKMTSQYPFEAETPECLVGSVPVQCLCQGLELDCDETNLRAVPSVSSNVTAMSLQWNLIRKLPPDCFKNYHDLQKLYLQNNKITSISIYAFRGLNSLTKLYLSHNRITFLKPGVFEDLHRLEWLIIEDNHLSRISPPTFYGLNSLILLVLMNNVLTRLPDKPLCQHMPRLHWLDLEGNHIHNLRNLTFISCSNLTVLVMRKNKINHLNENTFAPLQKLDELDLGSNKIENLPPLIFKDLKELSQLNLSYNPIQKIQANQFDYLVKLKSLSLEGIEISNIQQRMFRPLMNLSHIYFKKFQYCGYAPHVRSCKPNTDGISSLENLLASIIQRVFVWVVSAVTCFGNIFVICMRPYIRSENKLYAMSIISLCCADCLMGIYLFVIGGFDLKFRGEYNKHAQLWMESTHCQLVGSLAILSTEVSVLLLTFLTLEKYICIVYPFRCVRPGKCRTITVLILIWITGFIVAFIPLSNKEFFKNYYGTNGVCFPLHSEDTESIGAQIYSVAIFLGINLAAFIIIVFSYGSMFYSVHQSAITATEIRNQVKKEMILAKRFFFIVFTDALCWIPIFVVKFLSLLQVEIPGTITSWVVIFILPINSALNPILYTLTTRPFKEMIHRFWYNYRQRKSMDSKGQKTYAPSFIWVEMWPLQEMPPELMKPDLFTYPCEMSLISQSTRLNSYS

UniProt Q8WXD0, sequence (Q8WXD0 whole entry): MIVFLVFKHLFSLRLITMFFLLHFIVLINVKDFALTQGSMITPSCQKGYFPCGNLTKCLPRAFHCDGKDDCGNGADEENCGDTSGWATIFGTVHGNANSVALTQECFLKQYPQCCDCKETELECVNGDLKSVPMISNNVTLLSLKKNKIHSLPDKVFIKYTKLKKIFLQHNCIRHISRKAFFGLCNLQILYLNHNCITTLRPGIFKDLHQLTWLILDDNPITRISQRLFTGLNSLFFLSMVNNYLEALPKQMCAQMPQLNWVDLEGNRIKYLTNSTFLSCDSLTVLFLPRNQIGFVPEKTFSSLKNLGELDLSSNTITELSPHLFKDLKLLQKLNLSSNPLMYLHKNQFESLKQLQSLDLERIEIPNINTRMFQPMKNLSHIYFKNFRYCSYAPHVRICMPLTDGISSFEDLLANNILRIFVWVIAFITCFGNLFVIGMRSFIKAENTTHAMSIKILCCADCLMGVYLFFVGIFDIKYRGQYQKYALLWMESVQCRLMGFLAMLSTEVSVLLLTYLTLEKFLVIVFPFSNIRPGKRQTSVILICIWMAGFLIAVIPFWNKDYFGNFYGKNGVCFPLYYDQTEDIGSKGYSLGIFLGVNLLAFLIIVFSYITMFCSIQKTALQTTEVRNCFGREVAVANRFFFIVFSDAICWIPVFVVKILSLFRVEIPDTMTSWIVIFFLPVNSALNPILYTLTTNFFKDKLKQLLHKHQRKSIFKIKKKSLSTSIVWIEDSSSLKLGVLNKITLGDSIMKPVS

Turning to “rat INSL3, chemically synthesized (from UniProt Q9WUK0 103-128; Q9WUK0 103-128) (ligand)”, the ED50 in assay [1] was determined as 0.012 µM.

B1: porcine relaxin, P01348 161-182; P01348 25-56 (ligand)
chain 1: RMTLSEKCCQVGCIRKDIARLC
chain 2: QSTNDFIKACGRELVRLWVEICGSVSWGRTAL
With B1, in assay [2], the cAMP production by 293T cells expressing human LGR7 came out at 0.1 nM.
